Experimental data: patent US20140212446A1

Target: CD64, high affinity human FcgammaRI receptor, expressed on K562 cells (K64 cells) (human)
Test: flow cytometry of K64 cells loaded with FITC-labelled IgG2a for 1 h at 4 C, quantified with Immuno-Brite beads

Substance: IgG2a-FITC-labeled antibodies (antibody)
- antibodies bound to each cell (antibodies bound to each cell): 2000 to 6000
